Values of other authors, collected in paper PMC9477365.

Key:
[1] = molecular target: fibrin (gamma' site) gamma' chain (Homo sapiens) (UniProt P02671)
[2] = molecular target: fibrin (E domain site) E domain (Homo sapiens) (UniProt P02671)

For thrombin (from UniProt P00734), the Kd [1] is given as 9 µM and the Kd [2] is given as 2.8 µM.
